Substitutions are numbered along the chain they refer to.
T1: human IL-12 (human, UniProt P29459 23-219; P29460 23-328)
T1 construct: recombinant human IL-12 heterodimer (p35/p40, disulfide-linked); also called hIL-12; rhIL-12
T1 sequence (looked up) 1: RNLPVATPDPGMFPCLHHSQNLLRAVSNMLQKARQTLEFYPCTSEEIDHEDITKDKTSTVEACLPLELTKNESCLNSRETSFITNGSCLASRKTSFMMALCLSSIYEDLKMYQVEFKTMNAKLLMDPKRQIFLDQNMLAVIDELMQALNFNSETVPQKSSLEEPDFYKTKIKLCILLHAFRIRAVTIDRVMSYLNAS
T1 sequence (looked up) 2: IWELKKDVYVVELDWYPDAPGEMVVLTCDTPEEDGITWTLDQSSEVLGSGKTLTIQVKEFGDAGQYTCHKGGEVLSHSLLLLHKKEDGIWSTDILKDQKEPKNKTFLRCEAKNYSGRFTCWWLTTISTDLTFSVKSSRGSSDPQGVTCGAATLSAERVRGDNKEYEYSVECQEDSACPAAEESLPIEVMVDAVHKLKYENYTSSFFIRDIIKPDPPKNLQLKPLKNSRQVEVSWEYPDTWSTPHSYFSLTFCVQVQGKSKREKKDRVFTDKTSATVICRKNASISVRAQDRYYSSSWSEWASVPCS

B1: 31-A6 (scFv, V domains shown)
VH: QVQLVQSGGGVVQPGRSLRLSCAASGFTFSSYGMHWVRQAPGKGLEWVAFIRYDGSNKYYADSVKGRFTISRDNSKNTLYLQMKSLRAEDTAVYYCKTHGSHDNWGQGTMVTVSS
VL: SYVLTQPPSVSGTPGQRVTISCSGGRSNIGSNTVKWYQQLPGTAPKLLIYGNDQRPSGVPDRFSGSKSGTSASLAITGVQAEDEADYYCQSYDRGTHPNLNFGTGTKVTVL
notes: scFv
B2: 101-9 (scFv, V domains shown)
VH: B1 VH with K97T, H102Y, N104Y
VL: B1 VL with R94S, G95S, T96L, H97T, P98G, N99S, L100R, N101V
notes: scFv
B3: B5 (scFv, V domains shown)
VH: B1 VH
VL: B1 VL with T96Q, H97P, P98H, N99A, L100V, N101L
notes: scFv
B4: A1 (scFv, V domains shown)
VH: B1 VH
VL: B1 VL with T96L, H97P, P98R, N99L, L100T, N101H
notes: scFv
B5: 177-H10 (scFv, V domains shown)
VH: B1 VH
VL: B1 VL with N99T, L100M, N101Y
notes: scFv
B6: A6 (scFv, V domains shown)
VH: B1 VH
VL: B1 VL with N99W, N101H
notes: scFv
B7: 43-G3 (scFv, V domains shown)
VH: B1 VH
VL: B1 VL with T96I, H97W
notes: scFv
B8: 156-17 (scFv, V domains shown)
VH: B1 VH with K97T
VL: B1 VL with R94S, G95S, T96L, H97W, P98G, N99T, L100R, N101V
notes: scFv
B9: 170-15 (scFv, V domains shown)
VH: B1 VH with K97T, H99S, H102Y, N104Y
VL: B1 VL with T96L, H97T, P98G, N99Y, L100R, N101L
notes: scFv
B10: 177-G6 (scFv, V domains shown)
VH: B1 VH
VL: B1 VL with N99T, L100M, N101I
notes: scFv
B11: 177-C6 (scFv, V domains shown)
VH: B1 VH
VL: B1 VL with N99V, L100P, N101A
notes: scFv
B12: 144-F1 (scFv, V domains shown)
VH: B1 VH
VL: B1 VL with T96H, P98Y, N99T, L100T, N101F
notes: scFv
B13: A5 (scFv, V domains shown)
VH: B1 VH
VL: B1 VL with N99S, L100M, N101L
notes: scFv
B14: B8 (scFv, V domains shown)
VH: B1 VH
VL: B1 VL with T96H, H97T, P98A, N99H, N101Y
notes: scFv
B15: 170-1 (scFv, V domains shown)
VH: B1 VH with K97T, H99S, H102Y, N104Y
VL: B1 VL with T96F, H97T, P98G, N99F, L100K, N101V
notes: scFv
B16: 170-19 (scFv, V domains shown)
VH: B1 VH with K97T
VL: B1 VL with T96F, H97T, P98D, N99Y, L100K, N101V
notes: scFv
B17: A9 (scFv, V domains shown)
VH: B1 VH
VL: B1 VL with T96P, H97A, P98R, N99T, L100S, N101P
notes: scFv
B18: 170-11 (scFv, V domains shown)
VH: B1 VH with K97T, H99S, H102Y, N104Y
VL: B1 VL with T96L, H97T, P98G, N99F, L100R, N101V
notes: scFv
B19: 101-4 (scFv, V domains shown)
VH: B1 VH with K97T, H99S, H102I, N104Y
VL: B1 VL with R94S, G95S, T96L, H97T, P98G, N99S, L100R, N101V
notes: scFv
B20: B2 (scFv, V domains shown)
VH: B1 VH
VL: B1 VL with T96R, H97P, P98R, N99H, L100A, N101L
notes: scFv
B21: A2 (scFv, V domains shown)
VH: B1 VH
VL: B1 VL with T96P, H97Y, P98H, N99P, L100I, N101R
notes: scFv
B22: A11 (scFv, V domains shown)
VH: B1 VH
VL: B1 VL with H97F, N99S, L100P, N101Q
notes: scFv
B23: 170-21 (scFv, V domains shown)
VH: B1 VH with K97T, H102Q
VL: B1 VL with T96F, H97T, P98G, N99P, L100R, N101L
notes: scFv
B24: 101-5 (scFv, V domains shown)
VH: B1 VH with K97T, H99S, H102I, N104Y
VL: B1 VL with R94S, G95S, T96L, H97T, P98G, N99S, L100R, N101V
notes: scFv
B25: A12 (scFv, V domains shown)
VH: B1 VH
VL: B1 VL with H97T, N99R, L100P, N101M
notes: scFv
B26: 156-1 (scFv, V domains shown)
VH: B1 VH with K97T, N104T
VL: B1 VL with G95D, T96F, H97T, P98G, N99S, L100R, N101V
notes: scFv
B27: 156-3 (scFv, V domains shown)
VH: B1 VH with K97T, N104T
VL: B1 VL with R94N, T96F, H97T, P98G, N99A, L100R, N101V
notes: scFv
B28: 170-35 (scFv, V domains shown)
VH: B1 VH with K97A, H102Q
VL: B1 VL with T96F, H97T, P98G, N99S, L100R, N101V
notes: scFv
B29: A3 (scFv, V domains shown)
VH: B1 VH
VL: B1 VL with T96Y, H97P, P98R, L100I, N101L
notes: scFv
B30: 156-6 (scFv, V domains shown)
VH: B1 VH with K97T
VL: B1 VL with G95D, T96F, H97T, P98G, N99S, L100R, N101V
notes: scFv
B31: 70-7 (scFv, V domains shown)
VH: B1 VH with K97T, H99R, G100R, S101R, H102S, D103N, N104Y
VL: B1 VL with R94S, G95S, T96L, H97R, P98G, N99S, L100R, N101V
notes: scFv
B32: B9 (scFv, V domains shown)
VH: B1 VH
VL: B1 VL with T96R, H97A, P98A, N99H, L100P, N101Q
notes: scFv
B33: B3 (scFv, V domains shown)
VH: B1 VH
VL: B1 VL with H97P, P98S, N99Y, L100P, N101T
notes: scFv
B34: 103-1 (scFv, V domains shown)
VH: B1 VH with K97T, H99Q, S101R
VL: B1 VL with T96F, H97T, P98G, N99S, L100R, N101V
notes: scFv
B35: 70-13 (scFv, V domains shown)
VH: B1 VH with K97T, H99S, H102I, N104Y
VL: B1 VL with R94S, G95S, T96L, H97R, P98G, N99S, L100R, N101V
notes: scFv
B36: B7 (scFv, V domains shown)
VH: B1 VH
VL: B1 VL with T96D, H97S, P98N, N99H, L100D, N101L
notes: scFv
B37: A7 (scFv, V domains shown)
VH: B1 VH
VL: B1 VL with T96H, H97N, P98N, N99F, L100S, N101P
notes: scFv
B38: 101-14 (scFv, V domains shown)
VH: B1 VH with K97T, H102Y, N104Y
VL: B1 VL with T96F, H97T, P98G, N99S, L100R, N101V
notes: scFv
B39: 43-G2 (scFv, V domains shown)
VH: B1 VH
VL: B1 VL with T96S, H97S, N99A, L100I, N101M
notes: scFv
B40: 31-B5 (scFv, V domains shown)
VH: B1 VH
VL: B1 VL with N99S, L100I, N101S
notes: scFv
B41: A4 (scFv, V domains shown)
VH: B1 VH
VL: B1 VL with T96R, H97N, N99A, N101T
notes: scFv
B42: 70-2 (scFv, V domains shown)
VH: B1 VH with K97T, H102Y, N104Y
VL: B1 VL with R94S, G95S, T96L, H97R, P98G, N99S, L100R, N101V
notes: scFv
B43: A10 (scFv, V domains shown)
VH: B1 VH
VL: B1 VL with T96N, H97S, N99A, L100T, N101V
notes: scFv

Biological target: T1, human IL-12
Experiment: SPR (BIAcore), IL-12 chip
Description: The system utilizes the optical properties of SPR to detect alterations in protein concentrations within a dextran biosensor matrix. Proteins are covalently bound to the dextran matrix at known concentrations. […] To determine the off rate (koff), on rate (kₒₙ), association rate (Ka) and dissociation rate (Kd) constants, BIAcore kinetic evaluation software (version 2.1) was used.

koff	Binder
0.0005 s⁻¹	B1
0.00854 s⁻¹	B2
0.00304 s⁻¹	B3
0.00566 s⁻¹	B4
0.00344 s⁻¹	B5
0.00187 s⁻¹	B6
0.0009 s⁻¹	B7
0.006 s⁻¹	B8
0.00443 s⁻¹	B9
0.00055 s⁻¹	B10
0.000794 s⁻¹	B11
0.00058 s⁻¹	B12
0.00112 s⁻¹	B13
0.0024 s⁻¹	B14
0.00235 s⁻¹	B15
0.001 s⁻¹	B16
0.00798 s⁻¹	B17
0.00044 s⁻¹	B18
0.00976 s⁻¹	B19
0.00361 s⁻¹	B20
0.0038 s⁻¹	B21
0.00207 s⁻¹	B22

koff	Binder
0.00369 s⁻¹	B23
0.0445 s⁻¹	B24
0.00143 s⁻¹	B25
0.005 s⁻¹	B26
0.009 s⁻¹	B27
1e-05 s⁻¹	B28
0.00251 s⁻¹	B29
0.003 s⁻¹	B30
0.129 s⁻¹	B31
0.00866 s⁻¹	B32
0.00412 s⁻¹	B33
0.0029 s⁻¹	B34
0.072 s⁻¹	B35
0.00545 s⁻¹	B36
0.00395 s⁻¹	B37
0.00752 s⁻¹	B38
0.0007 s⁻¹	B39
0.0005 s⁻¹	B40
0.00147 s⁻¹	B41
0.033 s⁻¹	B42
0.00187 s⁻¹	B43

— US20150037348A1 (AbbVie / Abbott, published 2015)
